According to patent US20090209022A1 (AstraZeneca / MedImmune, published 2009):

Target: the molecule itself
Test: X-ray crystallography, partial model and electron density map

B1: H. influenzae pyrH UMP kinase (HI-1065), SeMet labelled, expressed from pSM145 (enzyme)
chain: GQPIYKRILLKLSGEALQGEDGLGIDPAILDRMAVEIKELVEMGVEVSVVLGGGNLFRGAKLAKAGMNRVVGDHMGMLATVMNGLAMRDSLFRADVNAKLMSAFQLNGICDTYNWSEAIKMLREKRVVIFSAGTGNPFFTTDSTACLRGIEIEADVVLKATKVDGVYDCDPAKNPDAKLYKNLSYAEVIDKELKVMDLSAFTLARDHGMPIRVFNMGKPGALRQVVTGTEEGTTIC
modifications: all methionines substituted with seleno-methionine (SeMet) in the crystallised protein
notes: Homohexamer (trimer of dimers); The crystal asymmetric unit holds eight chains: one hexamer and one dimer that gives a hexamer by crystallographic symmetry; The crystal also holds GTP (modelled as GDP) and phosphate
binding result: binds
